{"source": "the DeepSol protein solubility set"}
{"assay": "soluble on expression in E. coli; label from the status in PepcDB or PDB records"}
{"sequence": "GPLGSYGDAIPEVKAILEAKNEEELVTFTSRWSAEERKELRTQFQDTTGLEFIAFLKKCIKNGPYEDVMALGWDCNISARVNVIKKAMKNVNDFRAIHDVVLIATPDERLKLAQAYKEKTGNDLLQDFVDQIPLTSAASYLCHLAIRENRTPRGSVASDAEVLKHNLIDADEPDHEAVVRLIITSTADEYKEINHRFEVLTGKSVQEAIETRYADKENARGLCIAHYYNLAPARAVAYAFHSAVETQNDDMAYEQAARITGLFHDLHKFAWVHYACWGVMRDDILSRFQSKEANKVNFRDACLMFWKLAK", "soluble on expression in E. coli": "soluble"}
{"sequence": "GQAQTQVKIISQKSDEINEAITRKIDRGSTLLHTETGYLHSRQNMILTVISNRELSKLNQLVMEIDPTAFMIIGKVNEVHGNGFTLPKKHAVKTEK", "soluble on expression in E. coli": "not soluble"}
{"sequence": "GQELPPGTYRVDIYLNNGYMATRDVTFNTGDSEQGIVPCLTRAQLASMGLNTASVAGMNLLADDACVPLTTMVQDATAHLDVGQQRLNLTIPQAFMSNRARGYIPPELWDPGINA", "soluble on expression in E. coli": "soluble"}
{"sequence": "GQQINIHKPPIPERVQTIQGQVLFTKDDIVHGQQVWQSIGGQQIGSVWGHGSYVAPDWTADWLHREATIMLDSWAQEQGHEHYSDLPAEQQAALKERLKKTMRSNTYDAQTGTITLDDLRVDAMRSNAQYYSELFRDGHEHYAIPQNALNDKAAADDMTAFFWWTSWSASTNAPDSDISYTQNWPHEPLIDNAPPTGNI", "soluble on expression in E. coli": "not soluble"}
{"sequence": "GRAPRNGEKVLVEFVSANPTGPLHVGHARQAALGDAICRLYDASGWDVTREFYYNDAGNQIDNLAISVQARGRGIAPDAPDYPTDGYKGDYIVEIARDFAARKSVQASDGQPVTATGDLDSLDDIRAFAVAYLRREQDLDLQAFGLAFDNYFLESSLYASGRVQETVDTLVAKGHTYEEGGALWLRTTELGTGDDKDRVMRKSEGGYTYFVPDVAYHKVKWERGFHHAVNIQGSDHHGTVARVRAGLQGLEAGIPKDFPAYVLHKMVKVMRGGEEVKISKRAGSYVTMRDLIDWVGRDAVRYFLIQRRADTEFVFDIDLALSKSDENPVYYIQYAHARICTMIGNSGA", "soluble on expression in E. coli": "not soluble"}
{"sequence": "GRPYKLLNGIKLGVYIPQEWHDRLMEIAKEKNLTLSDVCRLAIKEYLDNHDKQKK", "soluble on expression in E. coli": "soluble"}
{"sequence": "GRYEIRFSGAGGQGLILAGVIMAEAASIYDGKQAVQSQSYGPEARGGASKSEVIISDGPVDYPKATQCDALLALTQEACDKYSADLKEGGVLLVDSDLVTKLPPGNYQTTAFNIINTAKNDVGREIVANIVALGAMVALTGVVSKEAAEKAVLSRVPEAFVELNRKAFQMGFEKALAAKK", "soluble on expression in E. coli": "soluble"}
{"sequence": "GSAASSALKGLIQQFTTITGASESVGKHMLEACNNNLEMAVTMFLDGGG", "soluble on expression in E. coli": "soluble"}
{"sequence": "GSARPSSSMADFRKFFAKAKHIVIISGAGVSAESGVPTFRGAGGYWRKWQAQDLATPLAFAHNPSRVWEFYHYRREVMGSKEPNAGHRAIAECETRLGKQGRRVVVITQNIDELHRKAGTKNLLEIHGSLFKTRCTSCGVVAENYKSPICPALSGKGAPEPGTQDASIPVEKLPRCEEAGCGGLLRPHVVWFGENLDPAILEEVDRELAHCDLCLVVGTSSVVYPAAMFAPQVAARGVPVAEFNTETTPATNRFRFHFQGPCGTTLPEALA", "soluble on expression in E. coli": "soluble"}
{"sequence": "GSDLPIDPNEPTYCLCNQVSYGEMIGCDNDECPIEWFHFSCVGLNHKPKGKWYCPKCRGENE", "soluble on expression in E. coli": "soluble"}
{"sequence": "GSEKRQHSSQDVHVVLKLWKSGFSLDNGELRSYQDPSNAQFLESIRRGEVPAELRRLAHGGQVNLDMEDHRDEDFVKPKGAFKAFTGEGQKLGSTAPQVLST", "soluble on expression in E. coli": "soluble"}
{"sequence": "GSEPYSLTAQQSSLIREDKSNAKLWNEVLASLKDRPASGSPFQLFLSKVEETFQCICCQELVFRPITTVCQHNVCKDCLDRSFRAQVFSCPACRYDLGRSYAMQVNQPLQTVLNQLFPGYGNGR", "soluble on expression in E. coli": "soluble"}
{"sequence": "GSFTRFDLAIDDKKTYFSIPELLKKAQKGECISRFRKSDFNGSFDLSDGITGGTTIYFGSKKSEAYLCFYEKNYEQAEKYNIPLEELGDWNRYELRLKNERAQVAIDALLKTKDLTLIAMQIINNYVRFVDADENITREHWKTSLFWSDFIGDVGRLPLYVKPQKDFYQKSRNWLRNSCAPTMKMVLEADEHLGKTDLSDMIAEAELADKHKKMLDVYMADVADMVV", "soluble on expression in E. coli": "not soluble"}
{"sequence": "GSHGGSMKAANASSAEAYRVLSRAFRFDNEDQKLWWHSTAPMFAKMLETANYTTPCQYQYLITYKECVIPSLGCYPTNSAPRWLSILTRYGTPFELSLNCSNSIVRYTFEPINQHTGTDKDPFNTHAIWESLQHLLPLEKSIDLEWFRHFKHDLTLNSEESAFLAHNDRLVGGTIRTQNKLALDLKDGRFALKTYIYPALKAVVTGKTIHELVFGSVRRLAVREPRILPPLNMLEEYIRSRGSKSTASPRLVSCDLTSPAKSRIKIYLLEQMVSLEAMEDLWTLGGRRRDASTLEGLSLVRELWDLIQLSPGLKSYPAPYLPLGVIPDERLPLMANFTLHQNDPVPEPQVYFTTFGMNDMAVADALTTFFERRGWSEMARTYETTLKSYYPHADHDKLNYLHAYISFSYRDRTPYLSVYLQSFETGDWAVANLSESKVKCQDAACQPTALPPDLSKTGVYYSGLH", "soluble on expression in E. coli": "soluble"}
{"sequence": "GSHHHHHHSSGLVPRGSFNELNAINENIRDDLSALLKSDFFKYFRLDLYKQCSFWDANDGLCLNRACSVDVVEDWDTLPEYWQPEILGSFNNDTMKEADDSDDECKFLDQLCQTSKKPVDIEDTINYCDVNDFNGKNAVLIDLTANPERFTGYGGKQAGQIWSTIYQDNCFTIGETGESLAKDAFYRLVSGFHASIGTHLSKEYLNTKTGKWEPNLDLFMARIGNFPDRVTNMYFNYAVVAKALWKIQPYLPEFSFCDLVNKEIKNKMDNVISQLDTKIFNEDLVFANDLSLTLKDEFRSRFKNVTKIMDCVQCDRCRLWGKIQTTGYATALKILFEINDADEFTKQHIVGKLTKYELIALLQTFGRLSESIESVNMFEKMYGKRLLER", "soluble on expression in E. coli": "soluble"}
{"sequence": "GSHMASTPDKFNDGNLNIAYAKPTTQSSVDYNGDPNRAVDGNRNGNFNSGSVTHTRADNPSWWEVDLKKMDKVGLVKIYNRTDAETQRLSNFDVILYDNNRNEVAKKHVNNLSGESVSLDFKEKGARYIKVKLLTSGVPLSLAEVEVFRES", "soluble on expression in E. coli": "soluble"}
{"sequence": "GSHMATEPKAGRPSDYMPEVADDICSLLSSGESLLKVCKRPGMPDKSTVFRWLAKHEDFRDKYAKATEARADSIFEEIFEIADNAIPDAAEVAKARLRVDTRKWALARMNPRKYGDKVTNELVGKDGGAIQIETSPMSTLFGK", "soluble on expression in E. coli": "soluble"}
{"sequence": "GSHMGQNDLVKTLRMNYLFDFYQSLLTNKQRNYLELFYLEDYSLSEIADTFNVSRQAVYDNIRRTGDLVEDYEKKLELYQKFEQRREIYDEMKQHLSNPEQIQRYIQQLEDLE", "soluble on expression in E. coli": "soluble"}
{"sequence": "GSHMKNSVSVDLPGSMKVLVSKSSNADGKYDLIATVDALELSGTSDKNNGSGVLEGVKADASKVKLTISDDLGQTTLEVFKSDGSTLVSKKVTSKDKSSTEEKFNEKGELSEKKITRADKSSTEEKFNEKGELSEKKITRADKSSTEEKFNEKGELSEKKITRADKSSTEEKFNEKGEVSEKIITRADGTRLEYTGIKSDGSGKAKEVLKGYVLEGTLTAEKTTLVVKEGTVTLSKNISKSGEVSVELNDTDSSAATKKTAAWNSGTSTLTITVNSKKTKDLVFTSSNTITVQQYDSNGTSLEGSAVEITKLDEIKNALK", "soluble on expression in E. coli": "soluble"}
{"sequence": "GSHMLITASSSKEYLPDLLLFWQNYEYWITNIGLYKTKQRDLTRTPANLDTDTEECMFWMNYLQKDQSFQLMNFAMENLGALYFGSIGDISELYLRVEQYWDRRADKNHSVDGKYWDALIWSVFTMCIYYMPVEKLAEIFSVYPLHEYLGSNKRLNWEDGMQLVMCQNFARCSLFQLKQCDFMAHPDIRLVQAYLILATTTFPYDEPLLANSLLTQCIHTFKNFHVDDFRPLLNDDPVESIAKVTLGRIFYRLCGCDYLQSGPRKPIALHTEVSSLLQHAAYLQDLPNVDVYREENSTEVLYWKIISLDRDLDQYLNKSSKPPLKTLDAIRRELDIFQYKVDSLEEDFRSNNSRFQKFIALFQISTVSWKLFKMYLIYYDTADSLLKVIHYSKVIISLIVNNFHAKSEFFNRHPMVMQTITRVVSFISFYQIFVESAAVKQLLVDLTELTANLPTIFGSKLDKLVYLTERLSKLKLLWDKVQLLDSGDSFYHPVFKILQNDIKIIELKNDEMFSLIKGLGSLVPLNKLRQESLLEEEDENNTEPSDFRTIVEEFQSEYNISDILS", "soluble on expression in E. coli": "soluble"}
